We go through 54 sequences from article PMC10683472, “Deep Learning-Driven Library Design for the De Novo Discovery of Bioactive Thiopeptides” (ACS Central Science, 2023).

The target of this assay is T1, TLR10 (Homo sapiens, UniProt Q9BXR5).
T1 sequence (Q9BXR5 20-576): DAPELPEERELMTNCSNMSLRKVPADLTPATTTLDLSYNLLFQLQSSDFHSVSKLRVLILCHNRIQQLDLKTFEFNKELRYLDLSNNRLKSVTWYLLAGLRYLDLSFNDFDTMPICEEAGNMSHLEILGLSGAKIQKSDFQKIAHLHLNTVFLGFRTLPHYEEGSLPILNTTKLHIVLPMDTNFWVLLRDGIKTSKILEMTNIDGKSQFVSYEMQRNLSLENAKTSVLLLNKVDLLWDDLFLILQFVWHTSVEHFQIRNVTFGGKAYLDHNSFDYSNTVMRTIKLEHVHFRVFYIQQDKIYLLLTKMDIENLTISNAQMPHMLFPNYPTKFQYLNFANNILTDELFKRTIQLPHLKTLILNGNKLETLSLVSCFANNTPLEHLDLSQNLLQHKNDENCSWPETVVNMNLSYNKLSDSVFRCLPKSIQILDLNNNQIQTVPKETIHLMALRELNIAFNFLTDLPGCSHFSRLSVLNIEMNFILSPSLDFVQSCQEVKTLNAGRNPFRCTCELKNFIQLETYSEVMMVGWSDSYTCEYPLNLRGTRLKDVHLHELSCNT
As to the kind of experiment: mRNA display affinity selection against TLR10, NGS abundance. The arrangement: Chimera protein (extracellular domain, amino acid 20-576;); Fc (chimera); purchased R&D system #6619-TR-050. Format: binding. Conditions: Top100 selection hits, NGS.

As to SPIHFRSVL, where the note is “TLR10 selection pulldown (+)”, the Library fraction turned out to be 0.00047 and the Raw reads is on record as 46.

In turn, AQMYPIQNKIAF returned a Library fraction (TLR10 selection pulldown (+)) of 0.00064 and a Library fraction (TLR10 selection pulldown (-)) of 0.00063. Besides, the Raw reads runs as follows: (TLR10 selection pulldown (+)) 62; (TLR10 selection pulldown (-)) 75.

Under “TLR10 selection pulldown (+)”, WCGATLYSSIS yielded a Library fraction of 0.00024 and a Raw reads of 23.

Under “TLR10 selection pulldown (-)”, TILFPLQRRLVV registered a Library fraction of 0.0018 and a Raw reads of 215.

For the setting “TLR10 selection pulldown (+)”, CLPFPLQMRIAY displayed a Library fraction of 0.00022 and a Raw reads of 21.

On to STLFFMFQGIRG, for which, where the note is “TLR10 selection pulldown (+)”, the Library fraction is listed as 0.00019 and the Raw reads was determined as 19.

For the setting “TLR10 selection pulldown (-)”, CVHFCWQRKLAY came in with a Library fraction of 0.00152 and a Raw reads of 181.

As to SNIVWCGQGIIG, where the note is “TLR10 selection pulldown (+)”, the Library fraction worked out at 0.168 and the Raw reads came to 16419. Besides, for the setting “TLR10 selection pulldown (-)”, the Library fraction is given as 0.077 and the Raw reads came to 9156.

Under “TLR10 selection pulldown (+)”, SFMFFSQRKLAF displayed a Library fraction of 0.00034 and a Raw reads of 33.

Regarding STHIYSKQGIRG, where the note is “TLR10 selection pulldown (+)”, the Library fraction is 0.004 and the Raw reads came to 409. For the setting “TLR10 selection pulldown (-)”, this sequence showed a Library fraction of 0.001 and a Raw reads of 116.

On to AMKLSARYIAF, for which, under “TLR10 selection pulldown (-)”, the Library fraction is listed as 0.00072 and the Raw reads was 86.

On to SITFQTLNKIAY, for which, for the setting “TLR10 selection pulldown (-)”, the Library fraction is recorded as 0.006 and the Raw reads stood at 714.

Under “TLR10 selection pulldown (-)”, IGRVWVQSS registered a Library fraction of 0.002 and a Raw reads of 250.

Take TMMFPRLGKVAY: where the note is “TLR10 selection pulldown (+)”, the Library fraction amounted to 0.00528 and the Raw reads was 515. Also, where the note is “TLR10 selection pulldown (-)”, the Library fraction was determined as 0.003 and the Raw reads turned out to be 351.

In the case of CMSFYLQRKIAI, under “TLR10 selection pulldown (-)”, the Library fraction is 0.00142 and the Raw reads turned out to be 169.

As to SMEFVKIPLVIH, where the note is “TLR10 selection pulldown (+)”, the Library fraction was determined as 0.00041 and the Raw reads was determined as 40.

For AKLIYRTQGIMG, under “TLR10 selection pulldown (+)”, the Library fraction is given as 0.00211 and the Raw reads was determined as 206.

For the setting “TLR10 selection pulldown (+)”, VGYVLVKSS registered a Library fraction of 0.00033 and a Raw reads of 32.

Turning to ATIDLQLRRLTL, for the setting “TLR10 selection pulldown (-)”, the Library fraction came to 0.00067 and the Raw reads came to 80.

For SIWFPLQRKIAA, where the note is “TLR10 selection pulldown (+)”, the Library fraction is listed as 0.00746 and the Raw reads was 727. Under “TLR10 selection pulldown (-)”, this sequence showed a Library fraction of 0.026 and a Raw reads of 3115.

On to GYAVGKLLIRV, for which, for the setting “TLR10 selection pulldown (+)”, the Library fraction came to 0.00026 and the Raw reads stood at 25.

Where the note is “TLR10 selection pulldown (+)”, SVCVYQHQGIRG returned a Library fraction of 0.035 and a Raw reads of 3411. Also, where the note is “TLR10 selection pulldown (-)”, the Library fraction came to 0.010 and the Raw reads amounted to 1149.

Consider RSPIPSWG, for which, for the setting “TLR10 selection pulldown (-)”, the Library fraction came out at 0.00043 and the Raw reads stood at 51.

With IGKTYVKSC, for the setting “TLR10 selection pulldown (+)”, the Library fraction stood at 0.00027 and the Raw reads is reported as 26.

Under “TLR10 selection pulldown (+)”, IGNVCVVSS gave a Library fraction of 0.007 and a Raw reads of 660. Also, for the setting “TLR10 selection pulldown (-)”, the Library fraction is 0.004 and the Raw reads worked out at 475.

For the setting “TLR10 selection pulldown (+)”, TNPYGGNITM displayed a Library fraction of 0.015 and a Raw reads of 1427. For the same sequence, where the note is “TLR10 selection pulldown (-)”, the Library fraction is on record as 0.00949 and the Raw reads is 1132.

Under “TLR10 selection pulldown (-)”, TMLFRLQSKLAI came in with a Library fraction of 0.013 and a Raw reads of 1571.

Regarding AVEFRLQRAIAY, under “TLR10 selection pulldown (+)”, the Library fraction came to 0.00163 and the Raw reads is recorded as 159. Further, under “TLR10 selection pulldown (-)”, the Library fraction was determined as 0.00093 and the Raw reads stood at 111.

Under “TLR10 selection pulldown (+)”, FVLNGRYLVM gave a Library fraction of 0.0007 and a Raw reads of 68.

Under “TLR10 selection pulldown (+)”, SVPFPLQRKLVF registered a Library fraction of 0.005 and a Raw reads of 482. For the setting “TLR10 selection pulldown (-)”, this sequence had a Library fraction of 0.00118 and a Raw reads of 141.

Under “TLR10 selection pulldown (+)”, RIETARLVIL registered a Library fraction of 0.00074 and a Raw reads of 72. Under “TLR10 selection pulldown (-)”, the Library fraction was 0.00141 and the Raw reads is reported as 168.

Consider SHYFAFQKKLAF, for which, for the setting “TLR10 selection pulldown (-)”, the Library fraction turned out to be 0.00125 and the Raw reads was 149.

For the setting “TLR10 selection pulldown (-)”, SVEVWVNQKIRG returned a Library fraction of 0.003 and a Raw reads of 343.

Under “TLR10 selection pulldown (+)”, FRGVLIRSS came in with a Library fraction of 0.00018 and a Raw reads of 18.

Under “TLR10 selection pulldown (+)”, SIQFKVLQKLAF came in with a Library fraction of 0.00018 and a Raw reads of 18.

Consider SILFSIQNKLVL, for which, under “TLR10 selection pulldown (+)”, the Library fraction was found to be 0.00021 and the Raw reads came out at 20.

Turning to RMMFHLLNQIAY, under “TLR10 selection pulldown (-)”, the Library fraction was 0.00358 and the Raw reads came out at 427.

Take GTGLNRYGGINY: the Library fraction by setting is: (TLR10 selection pulldown (+)) 0.023; (TLR10 selection pulldown (-)) 0.00739. Further, the Raw reads is, setting by setting: (TLR10 selection pulldown (+)) 2231; (TLR10 selection pulldown (-)) 882.

For the sequence RILFARQNLAAF, where the note is “TLR10 selection pulldown (-)”, the Library fraction amounted to 0.00283 and the Raw reads is 338.

Under “TLR10 selection pulldown (-)”, SICFPLQHKCAY yielded a Library fraction of 0.00144 and a Raw reads of 172.

Consider GLLHGNVPTWI, for which, where the note is “TLR10 selection pulldown (-)”, the Library fraction was found to be 0.002 and the Raw reads is on record as 232.

In the case of SIMIYCNQKIRG, for the setting “TLR10 selection pulldown (+)”, the Library fraction was 0.00114 and the Raw reads turned out to be 111.

Where the note is “TLR10 selection pulldown (+)”, SLEFPHLVIH displayed a Library fraction of 0.00028 and a Raw reads of 27.

Under “TLR10 selection pulldown (-)”, ALVTQHVNVY came in with a Library fraction of 0.00162 and a Raw reads of 193.

Under “TLR10 selection pulldown (+)”, SSPNRYGGNVNT returned a Library fraction of 0.00122 and a Raw reads of 119. Where the note is “TLR10 selection pulldown (-)”, the Library fraction was 0.00077 and the Raw reads is on record as 92.

Under “TLR10 selection pulldown (+)”, VGQVLVKSS had a Library fraction of 0.00061 and a Raw reads of 59. For the setting “TLR10 selection pulldown (-)”, this sequence came in with a Library fraction of 0.00086 and a Raw reads of 102.

As for IGSVFIKSS, under “TLR10 selection pulldown (+)”, the Library fraction stood at 0.00365 and the Raw reads was 356. Under “TLR10 selection pulldown (-)”, the Library fraction is 0.003 and the Raw reads came out at 375.

As to TCFSHYLIM, under “TLR10 selection pulldown (-)”, the Library fraction is reported as 0.002 and the Raw reads came to 237.

For SMCVWARQKIVG, for the setting “TLR10 selection pulldown (+)”, the Library fraction is 0.00071 and the Raw reads worked out at 69. Under “TLR10 selection pulldown (-)”, the Library fraction was found to be 0.00054 and the Raw reads is recorded as 64.

On to SRTIYRCQSIRG, for which, for the setting “TLR10 selection pulldown (+)”, the Library fraction is 0.008 and the Raw reads was found to be 777. Where the note is “TLR10 selection pulldown (-)”, this sequence came in with a Library fraction of 0.00125 and a Raw reads of 149.

As for AIYNRYGGNIAS, where the note is “TLR10 selection pulldown (-)”, the Library fraction is on record as 0.00153 and the Raw reads is 182.

For the sequence TLELQSVVLH, where the note is “TLR10 selection pulldown (+)”, the Library fraction is 0.00033 and the Raw reads is 32.

In the case of SSTVWKLQTICG, for the setting “TLR10 selection pulldown (-)”, the Library fraction is reported as 0.00046 and the Raw reads is on record as 55.

In the case of WPGSMARDSIS, under “TLR10 selection pulldown (+)”, the Library fraction is recorded as 0.013 and the Raw reads amounted to 1282. Moreover, for the setting “TLR10 selection pulldown (-)”, the Library fraction is given as 0.018 and the Raw reads is on record as 2179.
